{"source": "the supplement of paper PMC9112550", "about": "“Optimization of the antimicrobial peptide Bac7 by deep mutational scanning” (BMC Biology, 2022);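 also: peptides expressed intracellularly from a pBAD plasmid library in pooled LB shake-flask culture, induced with 0.3% L-arabinose, DNA abundance read by NGS, three biological replicates, DESeq2 with apeglm shrinkage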", "data": [{"tested_on": "Escherichia coli TOP10", "test": "shrunken log2 fold change of peptide-encoding DNA abundance (4.5 h post-induction vs induction); higher = less antimicrobial activity (less host growth inhibition)", "settings": "time post-induction: 4.5 h; library: site-saturation at positions 5, 18, 19, 20", "values": [{"sequence": "RRIRGRPPRLPRPRPRPAGVPRP", "shrunken log2 fold change": 0.742}, {"sequence": "RRIRWRPPRLPRPRPRPYDYPRP", "shrunken log2 fold change": -0.262}, {"sequence": "RRIRTRPPRLPRPRPRPGKRPRP", "shrunken log2 fold change": 0.0687}, {"sequence": "RRIRSRPPRLPRPRPRPIFRPRP", "shrunken log2 fold change": 0.0112}, {"sequence": "RRIRYRPPRLPRPRPRPIPAPRP", "shrunken log2 fold change": -0.0717}, {"sequence": "RRIRERPPRLPRPRPRPCIQPRP", "shrunken log2 fold change": -1.15}, {"sequence": "RRIRKRPPRLPRPRPRPTNGPRP", "shrunken log2 fold change": 0.0599}, {"sequence": "RRIRGRPPRLPRPRPRPYIAPRP", "shrunken log2 fold change": -0.391}, {"sequence": "RRIRFRPPRLPRPRPRPVFLPRP", "shrunken log2 fold change": -0.327}, {"sequence": "RRIRDRPPRLPRPRPRPTWSPRP", "shrunken log2 fold change": 0.235}, {"sequence": "RRIRGRPPRLPRPRPRPLLTPRP", "shrunken log2 fold change": 2.34}, {"sequence": "RRIRRRPPRLPRPRPRPISNPRP", "shrunken log2 fold change": -0.269}, {"sequence": "RRIRARPPRLPRPRPRPTDAPRP", "shrunken log2 fold change": 0.607}, {"sequence": "RRIRLRPPRLPRPRPRPFTQPRP", "shrunken log2 fold change": -0.337}, {"sequence": "RRIRDRPPRLPRPRPRPKPYPRP", "shrunken log2 fold change": -0.12}, {"sequence": "RRIRLRPPRLPRPRPRPYSFPRP", "shrunken log2 fold change": -0.841}, {"sequence": "RRIRSRPPRLPRPRPRPHQTPRP", "shrunken log2 fold change": -0.066}, {"sequence": "RRIRWRPPRLPRPRPRPPLQPRP", "shrunken log2 fold change": 0.475}, {"sequence": "RRIRVRPPRLPRPRPRPYCMPRP", "shrunken log2 fold change": -0.898}, {"sequence": "RRIRMRPPRLPRPRPRPDQYPRP", "shrunken log2 fold change": -0.418}, {"sequence": "RRIRTRPPRLPRPRPRPYGWPRP", "shrunken log2 fold change": -0.123}, {"sequence": "RRIRGRPPRLPRPRPRPEDPPRP", "shrunken log2 fold change": 1.38}, {"sequence": "RRIRARPPRLPRPRPRPQGHPRP", "shrunken log2 fold change": 0.273}, {"sequence": "RRIRNRPPRLPRPRPRPQSTPRP", "shrunken log2 fold change": -0.548}, {"sequence": "RRIRKRPPRLPRPRPRPHPEPRP", "shrunken log2 fold change": 0.39}, {"sequence": "RRIRVRPPRLPRPRPRPLDVPRP", "shrunken log2 fold change": -0.277}, {"sequence": "RRIRRRPPRLPRPRPRPSEYPRP", "shrunken log2 fold change": -0.192}, {"sequence": "RRIRLRPPRLPRPRPRPHTFPRP", "shrunken log2 fold change": -0.0496}, {"sequence": "RRIRVRPPRLPRPRPRPHWAPRP", "shrunken log2 fold change": 0.142}, {"sequence": "RRIRRRPPRLPRPRPRPTDNPRP", "shrunken log2 fold change": 0.277}, {"sequence": "RRIRHRPPRLPRPRPRPAHGPRP", "shrunken log2 fold change": 0.0855}, {"sequence": "RRIRQRPPRLPRPRPRPMLNPRP", "shrunken log2 fold change": 0.014}, {"sequence": "RRIRCRPPRLPRPRPRPEGKPRP", "shrunken log2 fold change": 0.31}, {"sequence": "RRIRDRPPRLPRPRPRPQIMPRP", "shrunken log2 fold change": 0.0478}, {"sequence": "RRIRSRPPRLPRPRPRPAQWPRP", "shrunken log2 fold change": 0.595}, {"sequence": "RRIRDRPPRLPRPRPRPGPEPRP", "shrunken log2 fold change": 0.544}, {"sequence": "RRIRGRPPRLPRPRPRPPGHPRP", "shrunken log2 fold change": 0.772}, {"sequence": "RRIRARPPRLPRPRPRPCMVPRP", "shrunken log2 fold change": -0.0554}, {"sequence": "RRIRGRPPRLPRPRPRPYVVPRP", "shrunken log2 fold change": -0.0656}, {"sequence": "RRIRIRPPRLPRPRPRPNMGPRP", "shrunken log2 fold change": -0.563}, {"sequence": "RRIRNRPPRLPRPRPRPMFKPRP", "shrunken log2 fold change": -0.386}, {"sequence": "RRIRARPPRLPRPRPRPHQDPRP", "shrunken log2 fold change": -0.126}, {"sequence": "RRIRDRPPRLPRPRPRPMVDPRP", "shrunken log2 fold change": -0.0109}, {"sequence": "RRIRFRPPRLPRPRPRPFEWPRP", "shrunken log2 fold change": -0.0458}, {"sequence": "RRIRCRPPRLPRPRPRPSTAPRP", "shrunken log2 fold change": 0.0354}, {"sequence": "RRIRHRPPRLPRPRPRPMESPRP", "shrunken log2 fold change": 0.00489}, {"sequence": "RRIRTRPPRLPRPRPRPPNWPRP", "shrunken log2 fold change": 0.845}, {"sequence": "RRIRHRPPRLPRPRPRPHVFPRP", "shrunken log2 fold change": -0.0684}, {"sequence": "RRIRWRPPRLPRPRPRPPHCPRP", "shrunken log2 fold change": 0.754}, {"sequence": "RRIRNRPPRLPRPRPRPYSWPRP", "shrunken log2 fold change": -0.814}, {"sequence": "RRIRQRPPRLPRPRPRPDDIPRP", "shrunken log2 fold change": -0.0246}, {"sequence": "RRIRNRPPRLPRPRPRPFFTPRP", "shrunken log2 fold change": -0.147}, {"sequence": "RRIRNRPPRLPRPRPRPHLCPRP", "shrunken log2 fold change": 0.183}, {"sequence": "RRIRQRPPRLPRPRPRPTVDPRP", "shrunken log2 fold change": 0.349}, {"sequence": "RRIRCRPPRLPRPRPRPWGPPRP", "shrunken log2 fold change": -0.299}, {"sequence": "RRIRIRPPRLPRPRPRPKSTPRP", "shrunken log2 fold change": -0.214}, {"sequence": "RRIRDRPPRLPRPRPRPKQCPRP", "shrunken log2 fold change": 0.101}, {"sequence": "RRIRWRPPRLPRPRPRPSHQPRP", "shrunken log2 fold change": -0.0408}, {"sequence": "RRIRCRPPRLPRPRPRPARRPRP", "shrunken log2 fold change": 0.555}, {"sequence": "RRIRHRPPRLPRPRPRPPKNPRP", "shrunken log2 fold change": -0.0129}, {"sequence": "RRIRFRPPRLPRPRPRPQVCPRP", "shrunken log2 fold change": -0.00807}, {"sequence": "RRIRWRPPRLPRPRPRPNNPPRP", "shrunken log2 fold change": -0.631}, {"sequence": "RRIRERPPRLPRPRPRPCGCPRP", "shrunken log2 fold change": -0.0805}, {"sequence": "RRIRSRPPRLPRPRPRPIQMPRP", "shrunken log2 fold change": -0.103}, {"sequence": "RRIRQRPPRLPRPRPRPSMLPRP", "shrunken log2 fold change": -0.522}, {"sequence": "RRIRHRPPRLPRPRPRPDLEPRP", "shrunken log2 fold change": -0.00264}, {"sequence": "RRIRGRPPRLPRPRPRPMTHPRP", "shrunken log2 fold change": 0.708}, {"sequence": "RRIRSRPPRLPRPRPRPNTAPRP", "shrunken log2 fold change": -0.0399}, {"sequence": "RRIRPRPPRLPRPRPRPEMKPRP", "shrunken log2 fold change": -0.0423}, {"sequence": "RRIRARPPRLPRPRPRPKSTPRP", "shrunken log2 fold change": 0.28}, {"sequence": "RRIRKRPPRLPRPRPRPIKFPRP", "shrunken log2 fold change": -0.131}, {"sequence": "RRIRVRPPRLPRPRPRPKYAPRP", "shrunken log2 fold change": -0.236}, {"sequence": "RRIRQRPPRLPRPRPRPEMEPRP", "shrunken log2 fold change": 0.0171}, {"sequence": "RRIRMRPPRLPRPRPRPHTAPRP", "shrunken log2 fold change": -0.000764}, {"sequence": "RRIRWRPPRLPRPRPRPPAHPRP", "shrunken log2 fold change": 0.498}, {"sequence": "RRIRPRPPRLPRPRPRPQCMPRP", "shrunken log2 fold change": -0.312}, {"sequence": "RRIRRRPPRLPRPRPRPNNKPRP", "shrunken log2 fold change": -0.24}, {"sequence": "RRIRTRPPRLPRPRPRPEEDPRP", "shrunken log2 fold change": -0.00174}, {"sequence": "RRIRDRPPRLPRPRPRPAQDPRP", "shrunken log2 fold change": 0.684}, {"sequence": "RRIRFRPPRLPRPRPRPPNIPRP", "shrunken log2 fold change": -0.185}, {"sequence": "RRIRFRPPRLPRPRPRPPKAPRP", "shrunken log2 fold change": 0.332}, {"sequence": "RRIRNRPPRLPRPRPRPNLFPRP", "shrunken log2 fold change": -0.225}, {"sequence": "RRIRTRPPRLPRPRPRPCSRPRP", "shrunken log2 fold change": -0.182}, {"sequence": "RRIRMRPPRLPRPRPRPGPCPRP", "shrunken log2 fold change": 0.915}, {"sequence": "RRIRMRPPRLPRPRPRPDDYPRP", "shrunken log2 fold change": 0.766}, {"sequence": "RRIRRRPPRLPRPRPRPPFYPRP", "shrunken log2 fold change": 0.463}, {"sequence": "RRIRSRPPRLPRPRPRPQTDPRP", "shrunken log2 fold change": -0.0826}, {"sequence": "RRIRYRPPRLPRPRPRPICNPRP", "shrunken log2 fold change": -0.332}, {"sequence": "RRIRMRPPRLPRPRPRPDSWPRP", "shrunken log2 fold change": 1.59}, {"sequence": "RRIRYRPPRLPRPRPRPYEAPRP", "shrunken log2 fold change": -0.336}, {"sequence": "RRIRYRPPRLPRPRPRPYIAPRP", "shrunken log2 fold change": -1.23}, {"sequence": "RRIRGRPPRLPRPRPRPQHHPRP", "shrunken log2 fold change": -0.102}, {"sequence": "RRIRCRPPRLPRPRPRPRFEPRP", "shrunken log2 fold change": 0.115}, {"sequence": "RRIRYRPPRLPRPRPRPVYPPRP", "shrunken log2 fold change": -0.208}, {"sequence": "RRIRLRPPRLPRPRPRPFKIPRP", "shrunken log2 fold change": -0.00613}, {"sequence": "RRIRPRPPRLPRPRPRPWGVPRP", "shrunken log2 fold change": -0.128}, {"sequence": "RRIRARPPRLPRPRPRPMIDPRP", "shrunken log2 fold change": 0.535}, {"sequence": "RRIRCRPPRLPRPRPRPRMGPRP", "shrunken log2 fold change": 0.0392}, {"sequence": "RRIRYRPPRLPRPRPRPEHRPRP", "shrunken log2 fold change": 0.0623}, {"sequence": "RRIRVRPPRLPRPRPRPKNLPRP", "shrunken log2 fold change": 0.0256}, {"sequence": "RRIRARPPRLPRPRPRPNSQPRP", "shrunken log2 fold change": 0.0062}, {"sequence": "RRIRARPPRLPRPRPRPQISPRP", "shrunken log2 fold change": -0.051}, {"sequence": "RRIRCRPPRLPRPRPRPINTPRP", "shrunken log2 fold change": -0.329}, {"sequence": "RRIRMRPPRLPRPRPRPVNAPRP", "shrunken log2 fold change": 0.297}, {"sequence": "RRIRARPPRLPRPRPRPCYPPRP", "shrunken log2 fold change": -0.209}, {"sequence": "RRIRTRPPRLPRPRPRPKWNPRP", "shrunken log2 fold change": 0.0454}, {"sequence": "RRIRNRPPRLPRPRPRPLFRPRP", "shrunken log2 fold change": -0.266}, {"sequence": "RRIRLRPPRLPRPRPRPAVVPRP", "shrunken log2 fold change": 0.028}, {"sequence": "RRIRHRPPRLPRPRPRPDFGPRP", "shrunken log2 fold change": -0.156}, {"sequence": "RRIRSRPPRLPRPRPRPYSEPRP", "shrunken log2 fold change": -0.561}, {"sequence": "RRIRVRPPRLPRPRPRPLEFPRP", "shrunken log2 fold change": -0.114}, {"sequence": "RRIRVRPPRLPRPRPRPAARPRP", "shrunken log2 fold change": 0.47}, {"sequence": "RRIRKRPPRLPRPRPRPIKQPRP", "shrunken log2 fold change": -0.089}, {"sequence": "RRIRKRPPRLPRPRPRPIDLPRP", "shrunken log2 fold change": -0.0822}, {"sequence": "RRIRVRPPRLPRPRPRPGNDPRP", "shrunken log2 fold change": -0.0387}, {"sequence": "RRIRSRPPRLPRPRPRPNFNPRP", "shrunken log2 fold change": -0.298}, {"sequence": "RRIRFRPPRLPRPRPRPSGSPRP", "shrunken log2 fold change": -0.192}, {"sequence": "RRIRDRPPRLPRPRPRPHPAPRP", "shrunken log2 fold change": 0.145}, {"sequence": "RRIRWRPPRLPRPRPRPLRTPRP", "shrunken log2 fold change": 1.39}, {"sequence": "RRIRCRPPRLPRPRPRPARWPRP", "shrunken log2 fold change": 0.56}, {"sequence": "RRIRDRPPRLPRPRPRPRLNPRP", "shrunken log2 fold change": -0.0317}, {"sequence": "RRIRQRPPRLPRPRPRPAAHPRP", "shrunken log2 fold change": 0.179}, {"sequence": "RRIRGRPPRLPRPRPRPKAQPRP", "shrunken log2 fold change": 1.27}, {"sequence": "RRIRGRPPRLPRPRPRPKQEPRP", "shrunken log2 fold change": 0.0916}, {"sequence": "RRIRERPPRLPRPRPRPMRDPRP", "shrunken log2 fold change": 0.365}]}]}
